# From patent publication US20050059107A1
# Tests used:
# [1] = target: HLA-DP4 molecule DP401 (DPA1*0103/DPB1*0401) (human) (UniProt P20036); experiment: competition ELISA
# [2] = target: HLA-DP4 molecule DP401 (DPA1*0103/DPB1*0401) (human) (UniProt P20036); experiment: competition ELISA, tracer bUNK1
# [3] = target: HLA-DP4 molecule DP402 (DPA1*0103/DPB1*0402) (human) (UniProt P20036); experiment: competition ELISA
# [4] = target: HLA-DP4 molecule DP402 (DPA1*0103/DPB1*0402) (human) (UniProt P20036); experiment: competition ELISA, tracer bUNK1
# [5] = target: HLA-DP4 molecule DP401 (DPA1*0103/DPB1*0401) (human) (UniProt P20036); experiment: competition ELISA; capped, '>10 000' in Table VII
# [6] = target: HLA-DP4 molecule DP402 (DPA1*0103/DPB1*0402) (human) (UniProt P20036); experiment: competition ELISA; capped, '>10 000' in Table VII
substance,measurement,setting,value
Api m1 81-98 (peptide),IC50,[1],2.25 µM
same,IC50,[2],2.25 µM
Api m1 65-82 (peptide),IC50,[1],50 µM
same,IC50,[3],6.5 µM
same,IC50,[2],50 µM
same,IC50,[4],6.5 µM
same,relative binding activity vs UNK1 (IC50 ratio),[4],371 fold
Api m1 73-90 (peptide),IC50,[2],> 10 µM
same,IC50,[4],> 10 µM
same,IC50,[5],10 µM
same,IC50,[6],> 10 µM
Api m1 69-86 (peptide),IC50,[2],> 10 µM
same,IC50,[4],> 10 µM
same,IC50,[5],10 µM
same,IC50,[6],> 10 µM
